{"source": "paper PMC3276543", "about": "“Structural Basis of Transcriptional Gene Silencing Mediated by Arabidopsis MOM1” (PLoS Genetics, 2012)", "target": "the molecule itself", "test": "crystal structure; hanging drop vapor diffusion at 4°C, 0.1 M Tris pH 8.5, 0.3 M magnesium formate dihydrate; SAD phasing with seleno-methionine protein; native data to 3.2 Å", "data": [{"protein": "MOM1 fragment corresponding to amino acid positions 1700 to 1814 (CMM2-containing protein fragment) (domain or fragment, Arabidopsis thaliana, UniProt Q9M658 1700-1814, looked up, MORPHEUS' MOLECULE1 (MOM1), Arabidopsis thaliana, protein of 2001 amino acids, residues 1700-1814; residues 1729-1811 are ordered in the crystal; A seleno-methionine-containing form (E. coli strain 834) was used for phasing only; the 3.2 A data set is of the native protein; also called CMM2 protein fragment; CMM2 domain) HSAGVTALVPSLLNNGTEQIAVQPVPQIPFPVFNDPFLHELEKLRRESENSKKTFEEKKSILKAELERKMAEVQAEFRRKFHEVEAEHNTRTTKIEKDKNLVIMNKLLANAFLSK", "values": [{"measurement": "stoichiometry N", "result": 2}]}]}
